According to article PMC11090974, “Structural basis for the distinct roles of non-conserved Pro116 and conserved Tyr124 of BCH domain of yeast p50RhoGAP” (Cellular and Molecular Life Sciences: CMLS, 2024):
Values joined by “and” are separate entries in the source; they are usually repeats but may differ in a detail not shown here. Equal values may be shown once.

Target: the molecule itself
Assay: AUC; sedimentation velocity, 2.4 mg/ml, absorbance at 280 nm, 40,000 rpm, 24 °C, analysed with Sedfit

| Protein | stoichiometry N |
| --- | --- |
| BCH domain of S. pombe p50RhoGAP, wild type (YBCH 1-156 a.a) (domain or fragment, UniProt Q9P3B1 1-156, looked up, S. pombe homolog of p50RhoGAP (SPAC1565.02c protein), BCH domain, residues 1-156; The methods tell cloning, expression and purification only for the P116A mutant (parent construct (His)6-SlyD YBCH in pET32a); also called WT YBCH; yeast BCH) MEHDLERLCFIGGYDNDNDKVIVVVTKNLELFKKYDDINLIKEAYNHVHKLIQKDERYTAVFFAHDSTVFSYLGLSLKAYYGMDYYLHKNVKAVYVIHTDWMSKVAIRTLLSIASPKFTRKFRYLNSISDLNKYIPLSHLKLPPIVYEFDRNVEPA | 2 |
| P116A mutant of the BCH domain of S. pombe p50RhoGAP (YBCH 1-156 a.a) (domain or fragment, UniProt Q9P3B1 1-156, looked up, S. pombe homolog of p50RhoGAP (SPAC1565.02c protein), BCH domain, residues 1-156, Pro116 to Ala; SlyD tag cleaved with PreScission protease; also called P116A-YBCH; YBCH P116A; source: E. coli BL21 (DE3), purified (Ni-NTA, cation exchange, gel filtration)) MEHDLERLCFIGGYDNDNDKVIVVVTKNLELFKKYDDINLIKEAYNHVHKLIQKDERYTAVFFAHDSTVFSYLGLSLKAYYGMDYYLHKNVKAVYVIHTDWMSKVAIRTLLSIASAKFTRKFRYLNSISDLNKYIPLSHLKLPPIVYEFDRNVEPA | 2 and 4 |
